A word on the Kd: it is the constant that tells how readily two partners part at equilibrium. As a reminder, the koff is a measure of how fast the partners let go of each other. What is called kon is the second-order rate constant of association.

In one assay the target is T1, human TIGIT protein (human, UniProt Q495A1 22-141, limits assumed).
T1 construct: Recombinant protein (Genentech) used in ELISA screening and as SPR analyte; also called TIGIT antigen
T1 sequence: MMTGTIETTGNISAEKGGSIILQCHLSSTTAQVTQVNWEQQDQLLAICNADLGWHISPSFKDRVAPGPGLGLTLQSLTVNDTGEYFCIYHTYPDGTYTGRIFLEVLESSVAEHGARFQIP
The assay can be described thus: SPR, captured mAb. Here is the method:
(§1) Briefly, a series S CM5 biosensor chip was activated with N-ethyl-N′-(3-dimethylaminopropyl)-carbodiimide hydrochloride (EDC) and N-hydroxysuccinimide (NHS) reagents according to the supplier's (GE Healthcare Biosciences, Piscataway, N.J.) instructions, and a human antibody capture kit was applied to couple goat anti-human Fc IgGs in order to achieve approximately 10,000 response units (RU) on each flow cell, followed by blocking un-reacted groups with 1M ethanolamine.
(§2) (flow rate: 30 μl/min) with no regeneration between injections. The sensorgrams were recorded and evaluated by BIAcore™ T200 Evaluation Software (version 2.0) after subtraction of reference cell signal. Association rates (kₒₙ) and dissociation rates (koff) were calculated using a simple one-to-one Langmuir binding model. The equilibrium dissociation constant (KD) was calculated as the ratio koff/kₒₙ.
(§3) The first humanized versions, h6B2, L1H1, h10A5.L1H1, h7E7, L1H1, and h15C8.L1H1, which contain both rat CDRs and framework residues at Vernier positions, and the fully humanized versions, h6B2.L2H5, h10A5.L4H4, h7E7.L5H9, and h15C8.L5H9, which contain only rat CDRs were subject to BIAcore affinity measurement by comparison with original rat antibodies, rat6B2, rat10A5, rat7E7 and rat 15C8. For binding affinity determinations of TIGIT antibodies against human TIGIT, cynomolgus monkey TIGIT and human alanine-scanned TIGIT mutants by single-cycle kinetics, Surface Plasmon Resonance (SRP) measurement with a BIACORE™-T200 instrument was used, as described above.

Assay [1] concerns the target cynomolgus monkey (cyno) TIGIT protein (cynomolgus monkey, UniProt A0A7N9I9V4 89-209). The assay can be described thus: SPR, captured mAb. Here is the method: as §1, §2, §3
A general note: In SPR one partner is held on a chip, and binding of the other changes the refractive index at the surface.

Chain of cynomolgus monkey (cyno) TIGIT protein (A0A7N9I9V4 entry or part of it): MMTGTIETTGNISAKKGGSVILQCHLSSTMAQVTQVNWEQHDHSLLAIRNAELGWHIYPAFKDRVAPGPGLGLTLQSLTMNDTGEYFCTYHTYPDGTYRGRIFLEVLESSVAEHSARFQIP

B1: h7E7.L1H3 (antibody, V domains shown)
VH: EVQLVQSGAEVKKPGASVKVSCKASGYTFTEYSIYWVRQAPGQRLEIMGRIDPKNGRTYYVDKFKNRATLTADTSASTAYMELSSLRSEDTAVYFCTRIYGFYFDFWGQGTLVTVSS
VL: DIQLTQSPSFLSASVGDRVTITCKGSQNVNKYLVWYQQKPGKAPKLLIYNTDNLQSGIPSRFSGSGSGTEYTLTISSLQPEDFATYFCYQYNNGFTFGQGTKVEIK
notes: VH: I48M against h7E7.L1H1; FR/HVR pieces
B1: in the assay with human TIGIT protein, the Kd stood at 0.38 nM, the off-rate (koff) was determined as 0.00107 s⁻¹ and the association rate constant (kon) amounted to 2.82e+06 M⁻¹ s⁻¹. Also, in assay [1], binding was put at a Kd of 0.42 nM, the koff was determined as 0.000381 s⁻¹ and the kon was found to be 908000 M⁻¹ s⁻¹.

B2: h7E7.L1H4 (antibody, V domains shown)
VH: EVQLVQSGAEVKKPGASVKVSCKASGYTFTEYSIYWVRQAPGQRLEIIGRIDPKNGRTYYVDKFKNRVTLTADTSASTAYMELSSLRSEDTAVYFCTRIYGFYFDFWGQGTLVTVSS
VL: DIQLTQSPSFLSASVGDRVTITCKGSQNVNKYLVWYQQKPGKAPKLLIYNTDNLQSGIPSRFSGSGSGTEYTLTISSLQPEDFATYFCYQYNNGFTFGQGTKVEIK
notes: VH: A67V against h7E7.L1H1; FR/HVR pieces
In the assay with human TIGIT protein, B2 had a Kd of 0.27 nM, a koff of 0.000749 s⁻¹ and a kon of 2.79e+06 M⁻¹ s⁻¹. In assay [1], this molecule yielded a Kd of 0.4 nM, a koff of 0.000243 s⁻¹ and a kon of 601000 M⁻¹ s⁻¹.

B3: h15C8.L1H5 (antibody, V domains shown)
VH: EVQLVQSGAEVKKPGASVKVSCKASGYTFTEHSIYWLRQAPGQRLEIIGRIDPKNGRTYFVDKFKNRVTLTTDTSASTAYMELSSLRSEDTAVYFCARIDGFYFDFWGQGTLVTVSS
VL: DIQLTQSPSFLSASVGDRVTITCKGSQNVNKYLVWYQQKPGKAPKLLIYSTDNLQSGIPSRFSGSGSGTEYTLTISSLQPEDFATYFCYQYNNGFTFGQGTKVEIK
notes: VH: A67V against h15C8.L1H1; FR/HVR pieces
In the assay with human TIGIT protein, B3 registered a Kd of 0.71 nM, a koff of 0.000567 s⁻¹ and a kon of 798000 M⁻¹ s⁻¹. In assay [1], this molecule had a Kd of 1.15 nM, an off-rate constant (koff) of 0.000558 s⁻¹ and a kon of 484000 M⁻¹ s⁻¹.

B4: h7E7.L1H6 (antibody, V domains shown)
VH: EVQLVQSGAEVKKPGASVKVSCKASGYTFTEYSIYWVRQAPGQRLEIIGRIDPKNGRTYYVDKFKNRATLTRDTSASTAYMELSSLRSEDTAVYFCTRIYGFYFDFWGQGTLVTVSS
VL: DIQLTQSPSFLSASVGDRVTITCKGSQNVNKYLVWYQQKPGKAPKLLIYNTDNLQSGIPSRFSGSGSGTEYTLTISSLQPEDFATYFCYQYNNGFTFGQGTKVEIK
notes: VH: A71R against h7E7.L1H1; FR/HVR pieces
In the assay with human TIGIT protein, B4 displayed a Kd of 0.35 nM, a koff of 0.000648 s⁻¹ and a kon of 1.85e+06 M⁻¹ s⁻¹. In assay [1], this molecule registered a Kd of 0.44 nM, a koff of 0.000284 s⁻¹ and a kon of 641000 M⁻¹ s⁻¹.

B5: h7E7.L1H8 (antibody, V domains shown)
VH: EVQLVQSGAEVKKPGASVKVSCKASGYTFTEYSIYWVRQAPGQRLEIIGRIDPKNGRTYYVDKFKNRATLTADTSASTAYMELSSLRSEDTAVYFCARIYGFYFDFWGQGTLVTVSS
VL: DIQLTQSPSFLSASVGDRVTITCKGSQNVNKYLVWYQQKPGKAPKLLIYNTDNLQSGIPSRFSGSGSGTEYTLTISSLQPEDFATYFCYQYNNGFTFGQGTKVEIK
notes: VH: T93A against h7E7.L1H1; FR/HVR pieces
For B5, in the assay with human TIGIT protein, the dissociation constant (Kd) was found to be 0.36 nM, the koff is 0.00101 s⁻¹ and the kon was found to be 2.78e+06 M⁻¹ s⁻¹. In assay [1], this molecule came in with a Kd of 0.39 nM, a koff of 0.000331 s⁻¹ and a kon of 845000 M⁻¹ s⁻¹.

B6: h7E7.L5H1 (antibody, V domains shown)
VH: EVQLVQSGAEVKKPGASVKVSCKASGYTFTEYSIYWVRQAPGQRLEIIGRIDPKNGRTYYVDKFKNRATLTADTSASTAYMELSSLRSEDTAVYFCTRIYGFYFDFWGQGTLVTVSS
VL: DIQLTQSPSFLSASVGDRVTITCKGSQNVNKYLVWYQQKPGKAPKLLIYNTDNLQSGVPSRFSGSGSGTEFTLTISSLQPEDFATYYCYQYNNGFTFGQGTKVEIK
notes: VL: I58V, Y71F, F87Y against h7E7.L1H1; FR/HVR pieces
In the assay with human TIGIT protein, B6 registered a Kd of 0.32 nM, a koff of 0.00104 s⁻¹ and a kon of 3.21e+06 M⁻¹ s⁻¹. In addition, in assay [1], the Kd was found to be 0.56 nM, the koff was determined as 0.000324 s⁻¹ and the kon worked out at 575000 M⁻¹ s⁻¹.

B7: h7E7.L4H1 (antibody, V domains shown)
VH: EVQLVQSGAEVKKPGASVKVSCKASGYTFTEYSIYWVRQAPGQRLEIIGRIDPKNGRTYYVDKFKNRATLTADTSASTAYMELSSLRSEDTAVYFCTRIYGFYFDFWGQGTLVTVSS
VL: DIQLTQSPSFLSASVGDRVTITCKGSQNVNKYLVWYQQKPGKAPKLLIYNTDNLQSGIPSRFSGSGSGTEYTLTISSLQPEDFATYYCYQYNNGFTFGQGTKVEIK
notes: VL: F87Y against h7E7.L1H1; FR/HVR pieces
In the case of B7, in the assay with human TIGIT protein, binding was put at a Kd of 0.27 nM, the dissociation rate constant (koff) turned out to be 0.000796 s⁻¹ and the kon was 2.95e+06 M⁻¹ s⁻¹. In assay [1], this molecule displayed a Kd of 0.44 nM, a koff of 0.000274 s⁻¹ and an on-rate constant (kon) of 629000 M⁻¹ s⁻¹.

B8: h7E7.L3H1 (antibody, V domains shown)
VH: EVQLVQSGAEVKKPGASVKVSCKASGYTFTEYSIYWVRQAPGQRLEIIGRIDPKNGRTYYVDKFKNRATLTADTSASTAYMELSSLRSEDTAVYFCTRIYGFYFDFWGQGTLVTVSS
VL: DIQLTQSPSFLSASVGDRVTITCKGSQNVNKYLVWYQQKPGKAPKLLIYNTDNLQSGIPSRFSGSGSGTEFTLTISSLQPEDFATYFCYQYNNGFTFGQGTKVEIK
notes: VL: Y71F against h7E7.L1H1; FR/HVR pieces
Regarding B8, in the assay with human TIGIT protein, the affinity, expressed as Kd, was 0.24 nM; the koff turned out to be 0.000218 s⁻¹; the kon stood at 920000 M⁻¹ s⁻¹. In assay [1], the Kd worked out at 0.95 nM, the off-rate constant (koff) was determined as 0.00122 s⁻¹ and the on-rate (kon) is 1.28e+06 M⁻¹ s⁻¹.

B9: h7E7.L2H1 (antibody, V domains shown)
VH: EVQLVQSGAEVKKPGASVKVSCKASGYTFTEYSIYWVRQAPGQRLEIIGRIDPKNGRTYYVDKFKNRATLTADTSASTAYMELSSLRSEDTAVYFCTRIYGFYFDFWGQGTLVTVSS
VL: DIQLTQSPSFLSASVGDRVTITCKGSQNVNKYLVWYQQKPGKAPKLLIYNTDNLQSGVPSRFSGSGSGTEYTLTISSLQPEDFATYFCYQYNNGFTFGQGTKVEIK
notes: VL: I58V against h7E7.L1H1; FR/HVR pieces
In the assay with human TIGIT protein, B9 yielded a Kd of 0.24 nM, a koff of 0.000504 s⁻¹ and a kon of 2.06e+06 M⁻¹ s⁻¹. In assay [1], this molecule came in with a Kd of 0.36 nM, a koff of 0.000179 s⁻¹ and a kon of 493000 M⁻¹ s⁻¹.

B10: h7E7.L1H7 (antibody, V domains shown)
VH: EVQLVQSGAEVKKPGASVKVSCKASGYTFTEYSIYWVRQAPGQRLEIIGRIDPKNGRTYYVDKFKNRATLTADTSASTAYMELSSLRSEDTAVYYCTRIYGFYFDFWGQGTLVTVSS
VL: DIQLTQSPSFLSASVGDRVTITCKGSQNVNKYLVWYQQKPGKAPKLLIYNTDNLQSGIPSRFSGSGSGTEYTLTISSLQPEDFATYFCYQYNNGFTFGQGTKVEIK
notes: VH: F91Y against h7E7.L1H1; FR/HVR pieces
On to B10, for which, in the assay with human TIGIT protein, the Kd was 0.31 nM, the koff was determined as 0.000849 s⁻¹ and the kon was 2.74e+06 M⁻¹ s⁻¹. Besides, in assay [1], binding was characterised by a dissociation constant (Kd) of 0.43 nM, the off-rate constant (koff) is 0.000286 s⁻¹ and the kon amounted to 664000 M⁻¹ s⁻¹.

B11: h15C8.L1H2 (antibody, V domains shown)
VH: EVQLVQSGAEVKKPGASVKVSCKASGYTFTEHSIYWVRQAPGQRLEIIGRIDPKNGRTYFVDKFKNRATLTTDTSASTAYMELSSLRSEDTAVYFCARIDGFYFDFWGQGTLVTVSS
VL: DIQLTQSPSFLSASVGDRVTITCKGSQNVNKYLVWYQQKPGKAPKLLIYSTDNLQSGIPSRFSGSGSGTEYTLTISSLQPEDFATYFCYQYNNGFTFGQGTKVEIK
notes: VH: L37V against h15C8.L1H1; FR/HVR pieces
On to B11, for which, in the assay with human TIGIT protein, the Kd turned out to be 1.03 nM, the off-rate (koff) was 0.00107 s⁻¹ and the kon was found to be 1.04e+06 M⁻¹ s⁻¹. Moreover, in assay [1], the Kd was 2.1 nM, the off-rate constant (koff) stood at 0.000806 s⁻¹ and the on-rate (kon) was 382000 M⁻¹ s⁻¹.

B12: h15C8.L1H4 (antibody, V domains shown)
VH: EVQLVQSGAEVKKPGASVKVSCKASGYTFTEHSIYWLRQAPGQRLEIMGRIDPKNGRTYFVDKFKNRATLTTDTSASTAYMELSSLRSEDTAVYFCARIDGFYFDFWGQGTLVTVSS
VL: DIQLTQSPSFLSASVGDRVTITCKGSQNVNKYLVWYQQKPGKAPKLLIYSTDNLQSGIPSRFSGSGSGTEYTLTISSLQPEDFATYFCYQYNNGFTFGQGTKVEIK
notes: VH: I48M against h15C8.L1H1; FR/HVR pieces
In the assay with human TIGIT protein, B12 displayed a dissociation constant Kd of 0.59 nM, a koff of 0.000498 s⁻¹ and an on-rate constant (kon) of 841000 M⁻¹ s⁻¹. In assay [1], this molecule returned a Kd of 1.05 nM, a koff of 0.000558 s⁻¹ and a kon of 532000 M⁻¹ s⁻¹.

B13: h7E7.L1H5 (antibody, V domains shown)
VH: EVQLVQSGAEVKKPGASVKVSCKASGYTFTEYSIYWVRQAPGQRLEIIGRIDPKNGRTYYVDKFKNRATITADTSASTAYMELSSLRSEDTAVYFCTRIYGFYFDFWGQGTLVTVSS
VL: DIQLTQSPSFLSASVGDRVTITCKGSQNVNKYLVWYQQKPGKAPKLLIYNTDNLQSGIPSRFSGSGSGTEYTLTISSLQPEDFATYFCYQYNNGFTFGQGTKVEIK
notes: VH: L69I (printed L691) against h7E7.L1H1; FR/HVR pieces
In the assay with human TIGIT protein, B13 returned a Kd of 0.4 nM, a koff of 0.00129 s⁻¹ and a kon of 3.24e+06 M⁻¹ s⁻¹. In assay [1], this molecule yielded a Kd of 0.4 nM, a koff of 0.000359 s⁻¹ and a kon of 898000 M⁻¹ s⁻¹.

The values are drawn from patent publication US20220064286A1 (Genentech, published 2022).
